# Data as given in patent US7514534 (DYAX, dated 2009).
# B1: B11 (antibody, human IgG4, V domains shown)
# VH: EVQLLESGGGLVQPGGSLRLSCAASGFTFSPYFMFWVRQAPGKGLEWVSSIGSSGGDTSYADSVKGRFTISRDNSZNTLYLQMNSLRAEDTAVYYCARGLYRWGQGTLVTVSS
# VL: QSELTQPPSVSLAPGQTARITCGGNNIGTKSVHWYQQKPGQAPVLVVYDDSDRPSGIPERFSGSNSGNTATLTISRVEAGDEADYYCQVWDSGSDHQVFGGGTKLTVLG
# notes: whole human IgG4; the VHC entry has one unread residue (printed z, K75z)
# B2: B12 (antibody, human IgG4, V domains shown)
# VH: EVQLLESGGGLVQPGGSLRLSCAASGFTFSLYVMYWVRQAPGKGLEWVSYISSSGGITHYADSVKGRFTISRDNSKNTLYLQMNSLRAEDTAVYYCARGSIVVVPAAIRSNNWFDPWGQGTLVTVSS
# VL: QSALTQPPSVSVAPGQTARISCGGDNIDTKNVQWYQQRPGQAPVLVVYDNSDRPSAIPERFSGSNSGTTATLTISRVEAGDEADYYCQVFDGRSDHPVFGGGTKLTV
# notes: whole human IgG4
# B3: C01 (antibody, human IgG4, V domains shown)
# VH: EVQLLESGGGLVQPGGSLRLSCAASGFTFSNYGMSWVRQAPGKGLEWVSVIGPSGGITMYADSVKGRFTISRDNSKNTLYLQMNSLRAEDTAVYYCATGSSSGWYPNFDYWGQGTLVTVSS
# VL: DIQMTQSPSTLSASVGDRVTITCRASQSIGNWLAWYQQKPGEAPHLLIYQASSLEGGVPSRFSGSGSGTKFTLNISSLQPDDFATYYCQQYNSYSYTFGQGTKLDIKR
# notes: whole human IgG4
# B4: C03 (antibody, human IgG4, V domains shown)
# VH: EVQLLESGGGLVQPGGSLRLSCAASGFTFSLYMMKWVRQAPGKGLEWVSVISSSGGYTQYADSVKGRFTISRDNSKNTLYLQMNNLRAEDTAVYYCARGWDVWGKGTTVTVSS
# VL: QSALTQPPSASGTPGQRVTISCSGSNSNIGGNIVIWLQQLPGTAPKLMIYDVSDRPSGVPDRFSGSKSGTSASLAISGLQSEDEADYYCAAWDDSLNGWVFGGGTKLTVLS
# notes: whole human IgG4
# B5: C04 (antibody, human IgG4, V domains shown)
# VH: EVQLLESGGGLVQPGGSLRLSCAASGFTFSMYFMVWVRQAPGKGLEWVSWIGSSGGETPYADSVKGRFTISRDNSKNTLYLQMNSLRAEDTAVYYCARGYSSGWYVMGDYWGQGTLVTVSS
# VL: QSALTQPPSASGTPGQRVTISCSGTSSNIGSHYVFWYQQLPGTAPKLLIHRNDERPSGVPDRFSGSKSGTSASLAISGLQSEDEADYYCATWDDNLNGPVFGGGTKLT
# notes: whole human IgG4
# B6: C05 (antibody, human IgG4, V domains shown)
# VH: EVQLLESGGGLVQPGGSLRLSCAASGFTFSSYQMDWVRQAPGKGLEWVSRIVPSGGDTTYADSVKGRFTISRDNSKNTLYLQMNSLRAEDTAVYYCARHVYYDSSDYFPNPFDYWGQGTLVTVSS
# VL: QSELTQPPSVSGTPGQRVTISCSGSSSNIGSEYVYWFQQLPGTAPRLLIYRNDQRPSGVPDRFSGSKSGTSASLAISGLRSEDETDYYCTTWDDSLSGPVFGGGTKLTVLG
# notes: whole human IgG4
# B7: C06 (antibody, human IgG4, V domains shown)
# VH: EVQLLESGGGLVQPGGSLRLSCAASGFTFSFYFMFWVRQAPGKGLEWVSYIGPSGGPTNYADSVKGRFTISRDNSKNTLYLQMNSLRAEDTAVYYCARHYPREYQLPGSFDPWGQGTLVTVSS
# VL: DIQMTQSPSSLSASVGDRVTITCRASQGISNYLAWYQQKPGKVPKLLIYPASTLQSGVPSRFSGSGSGTDFTLTISSLQPEDFATYYCQQADSFPPTFGGGTTVEIRR
# notes: whole human IgG4
# B8: C07 (antibody, human IgG4, V domains shown)
# VH: EVQLLESGGGLVQPGGSLRLSCAASGFTFSYYVMMWVRQAPGKGLEWVSVIRPSGGITTYADSVKGRFTISRDNSKNTLYLQTNSLRAEDTAVYYCAKIDYGGNSFYFDYWGQGTLVTVSS
# VL: DIQMTQSPSSLSASVGDRVTITCRASQSISNYLNWYQQRPGKAPKLLIYAASSLERGVPSRFSGSGSGTDFTLTISSLQSEDFATYYCQQSYSPPPLTFGGGTKLEIKR
# notes: whole human IgG4
# B9: A03 (antibody, human IgG4, V domains shown)
# VH: EVQLLESGGGLVQPGGSLRLSCAASGFTFSIYSMDWVRQAPGKGLEWVSSIYSSGGATRYADSVKGRFTISRDNSKNTLYLQMNSLRAEDTAVYYCARCSWLQLVPMHPWGQGTLVTVSS
# VL: QSALTQPPSASGTPGQRVTISCSGGSSNIGSNFVYWYRQLPGTAPKLLIYRNYQRPSGVPDRFSGSKSGTSASLAISGLLSEDEADYYCAAWDDNVGGVFGSGTKVTVLG
# notes: whole human IgG4
# B10: C08 (antibody, human IgG4, V domains shown)
# VH: EVQLLESGGGLVQPGGSLRLSCAASGFTFSYYEMMWVRQAPGKGLEWVSSISPSGGPTMYADSVKGRFTISRDNSKNTLYLQMNSLRAEDTGVYYCARKMGRVGYCSSTSCYRDDYYGMDVWGQGTTVTVSS
# VL: DIQMTQSPPSLSALVGDRVTITCRASQSISRYVNWYQQKPGKAPKVLIYAASIVENGVPSRFSGSGSGTDFSLTISSLQPEDFATYYCQQTYSTPLTFGGGTKLAIKR
# notes: whole human IgG4
# B11: C09 (antibody, human IgG4, V domains shown)
# VH: EVQLLESGGGLVQPGGSLRLSCAASGFTFSQYFMNWVRQAPGKGLEWVSYISGGRTPYADSVKGRFTISRDNSKNTLYLQMNSLRAEDTAVYYCAILLGPSSSNHPFLGPWGQGTLVTVSS
# VL: DIQMTQSPGTLSLSPGERATLSCRASQSVSSTYLAWYQQKPGQAPRLLISGASSRATGIPDRFSGSGSGTDFTLTISRLEPEDFAVYYCQQYGSSPYTFGQGTKLEIKR
# notes: whole human IgG4
# B12: C10 (antibody, human IgG4, V domains shown)
# VH: EVQLLESGGGLVQPGGSLRLSCAASGFTFSVYVMMWVRQAPGKGLEWVSGIVPSGGKTHYADSVKGRFTISRDNSKNTLYLQMNSLRAEDTAVYYCARPDYGGNSRPLEYWGQGTLVTVSS
# VL: QSELTQPASVSGSPGQSITISCTGTSSDVGSYNLVSWYQQHPGKAPKLMIYEGSKRPSGVSNRFSGSKSGNTASLTISGLQAEDEADYYCCSYAGSSTYVFGTGTKVTVLG
# notes: whole human IgG4
# B13: C11 (antibody, human IgG4, V domains shown)
# VH: EVQLLESGGGLVQPGGSLRLSCAASGFTFSEYPMWWVRQAPGKGLEWVSWIYPSGGNTDYADSVKGRFTISRDNSKNTLYLQMNSLRAEDTAVYYCAIPYCSSSSCPLHWGQGTLVTVSS
# VL: QSELTQPPSASGSPGQSVTISCTGTSSDVGGYNYVSWYQQHPDKAPKLLIYEVTQRPSGVPDRFSGSRSGNTASLTVSGLQAEDEADYYCSSYAGRNNLYVFGPGTKVTVLG
# notes: whole human IgG4
# B14: D01 (antibody, V domains shown)
# VH: EVQLLESGGGLVQPGGSLRLSCAASGFTFSMYLMFWVRQAPGKGLEWVSVISSSGGETSYADSVKGRFTISRDNSKNTLYLQMNSLRAEDTAVYYCARQVSDWTRLYSFDYWGQGTLVTVSS
# VL: QSELTQPPSASGTPGQRITISCSGSSSNIGSNYVYWYQQFPETAPKLLISRNDQRPSGVPDRFSGSKSGTSASLAISGLRSEDEADYYCASWDDSLSGVVFGGGTKLTVLG
# notes: whole human IgG4
# What was measured:
# [1] = target: T1, MMP-3 (UniProt P08254 100-477, limits assumed); test: cross-reactivity ELISA on coated MMP
# T1 construct: also called stromelysin-1
# Method: (§1) Twenty-one of the reformatted MMP-26 antibodies were tested for MMP cross reactivity by ELISA analysis. MMP-3, MMP-7, MMP-9, and MMP-12 were coated onto Immulon 2 HB 96-well plates at a concentration of 1 μg/ml for 1 hour at 37° C. The plates were blocked with PBS-T containing 5% (w/v) nonfat dry milk for thirty minutes and subsequently washed with PBS-T. Each antibody was tested for reactivity to all of the above mentioned MMPs at a concentration of 2 μg/ml with an incubation time of 1 hour. Bound antibody was detected with an HRP-conjugated anti-human secondary antibody (Table 3, NT=not tested.).
# [2] = target: T2, MMP-9 (UniProt P14780 107-707, limits assumed); test: cross-reactivity ELISA on coated MMP
# T2 construct: also called gelatinase
# Method: as §1
# [3] = target: T3, MMP-26 catalytic domain, tagged with hexa-histidine (human, UniProt Q9NRE1 90-261); test: bead-based ELISA, MMP-26 on nickel beads, IgG4 culture supernatant
# T3 construct: the forward primer adds Met-Ala before it; also called MMP-26 target protein; Matrilysin-2; not shown: Also any N-terminal residues added by the forward primer (Met-Ala according to our card; the primers were not visible to me)
# T3 sequence: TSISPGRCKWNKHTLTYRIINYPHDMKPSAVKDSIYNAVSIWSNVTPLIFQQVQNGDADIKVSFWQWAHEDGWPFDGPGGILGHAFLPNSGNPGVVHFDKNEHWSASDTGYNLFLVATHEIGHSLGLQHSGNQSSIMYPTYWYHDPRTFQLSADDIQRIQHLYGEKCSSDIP
# Method: Reformatted and expressed full-length MMP-26 binding IgG4 antibodies were tested for specificity in a bead-based ELISA. Approximately 1.25 μg of MMP-26 protein was bound to nickel-coated magnetic beads (Novagen) which had been pre-blocked with phosphate buffered saline containing 5% (w/v) nonfat dry milk and 0.05% (v/v) Tween-20. The beads were washed in phosphate buffered saline containing 0.05% (v/v) Tween-20 (PBS-T) and 100 uls of unpurified cell culture supernatant containing transiently produced MMP-26-binding antibodies was added and incubated on a rotator for sixty minutes. The beads were washed with PBS-T and MMP-26-binding antibodies were detected with an HRP-conjugated anti-human secondary antibody. Data is expressed in fold over background where background consists of beads, blocking agent, and culture supernatant containing target antibody (Table 2; in this table, Results shown as fold over background (F>B) where background consists of beads, blocking agent, and culture supernatant).
# T1 sequence (P08254 100-477 limits assumed): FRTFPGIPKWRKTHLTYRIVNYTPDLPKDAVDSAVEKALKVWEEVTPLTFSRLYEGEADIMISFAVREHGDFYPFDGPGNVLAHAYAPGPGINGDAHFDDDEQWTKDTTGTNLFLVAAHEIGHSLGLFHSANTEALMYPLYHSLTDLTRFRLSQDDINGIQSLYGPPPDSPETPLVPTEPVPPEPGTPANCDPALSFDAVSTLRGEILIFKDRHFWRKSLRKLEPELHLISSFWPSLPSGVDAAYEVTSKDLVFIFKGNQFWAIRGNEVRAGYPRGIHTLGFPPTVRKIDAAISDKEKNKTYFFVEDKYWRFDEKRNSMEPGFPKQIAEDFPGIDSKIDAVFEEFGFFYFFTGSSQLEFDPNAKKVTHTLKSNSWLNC
# T2 sequence (P14780 107-707 limits assumed): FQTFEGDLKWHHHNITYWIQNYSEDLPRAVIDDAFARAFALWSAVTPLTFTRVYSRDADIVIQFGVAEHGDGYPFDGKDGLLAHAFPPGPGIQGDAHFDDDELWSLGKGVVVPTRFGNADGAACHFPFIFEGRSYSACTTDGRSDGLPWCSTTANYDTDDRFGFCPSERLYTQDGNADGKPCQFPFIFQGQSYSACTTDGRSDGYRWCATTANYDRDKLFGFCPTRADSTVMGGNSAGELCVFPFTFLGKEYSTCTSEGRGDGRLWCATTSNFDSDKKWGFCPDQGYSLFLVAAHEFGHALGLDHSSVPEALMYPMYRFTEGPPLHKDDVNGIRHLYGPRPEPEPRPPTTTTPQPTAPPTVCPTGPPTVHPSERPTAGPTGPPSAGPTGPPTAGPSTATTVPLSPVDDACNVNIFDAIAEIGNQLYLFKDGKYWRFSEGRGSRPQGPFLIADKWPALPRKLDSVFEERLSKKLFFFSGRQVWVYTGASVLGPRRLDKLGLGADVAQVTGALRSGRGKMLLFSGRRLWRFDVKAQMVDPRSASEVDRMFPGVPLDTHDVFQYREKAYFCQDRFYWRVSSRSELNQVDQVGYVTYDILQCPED
binder,measurement,setting,value
B1,binding result,[1],no binding (tested: 2 µg/ml)
same,binding result,[2],no binding (tested: 2 µg/ml)
same,F > B (fold over background),[3],3.13 fold over background
B2,binding result,[1],no binding (tested: 2 µg/ml)
same,binding result,[2],no binding (tested: 2 µg/ml)
same,F > B (fold over background),[3],2.83 fold over background
B3,binding result,[1],no binding (tested: 2 µg/ml)
same,binding result,[2],no binding (tested: 2 µg/ml)
same,F > B (fold over background),[3],2.8 fold over background
B4,binding result,[1],no binding (tested: 2 µg/ml)
same,binding result,[2],no binding (tested: 2 µg/ml)
same,F > B (fold over background),[3],4.1 fold over background
B5,binding result,[1],no binding (tested: 2 µg/ml)
same,binding result,[2],no binding (tested: 2 µg/ml)
same,F > B (fold over background),[3],2.9 fold over background
B6,binding result,[1],no binding (tested: 2 µg/ml)
same,binding result,[2],no binding (tested: 2 µg/ml)
same,F > B (fold over background),[3],3.6 fold over background
B7,binding result,[1],no binding (tested: 2 µg/ml)
same,binding result,[2],no binding (tested: 2 µg/ml)
same,F > B (fold over background),[3],2.2 fold over background
B8,binding result,[1],no binding (tested: 2 µg/ml)
same,binding result,[2],no binding (tested: 2 µg/ml)
same,F > B (fold over background),[3],3.12 fold over background
B9,binding result,[1],no binding (tested: 2 µg/ml)
same,binding result,[2],no binding (tested: 2 µg/ml)
same,F > B (fold over background),[3],3.54 fold over background
B10,binding result,[1],no binding (tested: 2 µg/ml)
same,binding result,[2],no binding (tested: 2 µg/ml)
same,F > B (fold over background),[3],3.4 fold over background
B11,binding result,[1],no binding (tested: 2 µg/ml)
same,binding result,[2],no binding (tested: 2 µg/ml)
same,F > B (fold over background),[3],3.4 fold over background
B12,binding result,[1],no binding (tested: 2 µg/ml)
same,binding result,[2],no binding (tested: 2 µg/ml)
same,F > B (fold over background),[3],3.41 fold over background
B13,binding result,[1],no binding (tested: 2 µg/ml)
same,binding result,[2],no binding (tested: 2 µg/ml)
same,F > B (fold over background),[3],2.6 fold over background
B14,binding result,[1],no binding (tested: 2 µg/ml)
same,binding result,[2],no binding (tested: 2 µg/ml)
same,F > B (fold over background),[3],3 fold over background
